Eight substances from the supplement of paper PMC5998384 can be followed below.

For series [1], the system named is HeLa Kyoto. Nature of the series: solubility in G1/S (NP-40 vs SDS abundance) (log2 ratio); higher = more soluble. The note with it: cell cycle stage: G1/S.
The test system of series [2] is HeLa Kyoto. The series can be described thus: thermal stability score vs G1/S (z-score of summed log2 fold changes over temperatures); higher = more thermally stable than in G1/S.
Series [3] relates to HeLa Kyoto. Nature of the series: solubility change mitosis vs G1/S (difference of NP-40 vs SDS log2 ratios) (log2 ratio difference); higher = more soluble in mitosis.
Setting [4] is: cell cycle stage: early G1 (4.5 h after nocodazole release).
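Wherever solubility change mitosis vs G1/S (difference of NP-40 vs SDS log2 ratios) is given: synchronized HeLa Kyoto cells (double thymidine block for G1/S, nocodazole release for mitosis), protein amounts in NP-40 versus SDS lysates quantified by mass spectrometry, three biological replicates.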
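Wherever solubility in G1/S (NP-40 vs SDS abundance) is given: HeLa Kyoto cells arrested at G1/S by double thymidine block, proteins quantified by TMT10plex mass spectrometry in mild NP-40 versus SDS extracts, three biological replicates.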
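Wherever thermal stability score vs G1/S (z-score of summed log2 fold changes over temperatures) is given: synchronized HeLa Kyoto cells, proteins quantified by TMT10plex mass spectrometry, three biological replicates, mitosis taken 0.5 h after nocodazole release, G1/S directly after double thymidine block.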

SVIL: in series [1], the “solubility in G1/S (log2)” value is -1.65. Also, the thermal stability score in series [2] (setting [4]) is -0.947; in series [2] (cell cycle stage: mitosis), 0.478. Moreover, in series [3], the “solubility change mitosis (log2)” value was 0.176.

“MARTTSQLYDAVPIQSSVVLCSCPSPSMVRTQTESSTPPGIPGGSRQGPAMDGTAAEPRPGAGSLQHAQPPPQPRKKRPEDFKFGKILGEGSFSTVVLARELATSREYAIKILEKRHIIKENKVPYVTRERDVMSRLDHPFFVKLYFTFQDDEKLYFGLSYAKNGELLKYIRKIGSFDETCTRFYTAEIVSALEYLHGKGIIHRDLKPENILLNEDMHIQITDFGTAKVLSPESKQARANSFVGTAQYVSPELLTEKSACKSSDLWALGCIIYQLVAGLPPFRAGNEYLIFQKIIKLEYDFPEKFFPKARDLVEKLLVLDATKRLGCEEMEGYGPLKAHPFFESVTWENLHQQTPPKLTAYLPAMSEDDEDCYGNYDNLLSQFGCMQVSSSSSSHSLSASDTGLPQRSGSNIEQYIHDLDSNSFELDLQFSEDEKRLLLEKQAGGNPWHQFVENNLILKMGPVDKRKGLFARRRQLLLTEGPHLYYVDPVNKVLKGEIPWSQELRPEAKNFKTFFVHTPNRTYYLMDPSGNAHKWCRKIQEVWRQRYQSHPDAAVQ [PDPK1]”: in series [1], the “solubility in G1/S (log2)” value was determined as 0.156. Further, the figures for the thermal stability score in series [2] (setting [4]) and in series [2] (cell cycle stage: mitosis) were 1.38 and 0.777, respectively. For the same substance, in series [3], the “solubility change mitosis (log2)” value is -0.222.

Consider “MAKQLQARRLDGIDYNPWVEFVKLASEHDVVNLGQGFPDFPPPDFAVEAFQHAVSGDFMLNQYTKTFGYPPLTKILASFFGELLGQEIDPLRNVLVTVGGYGALFTAFQALVDEGDEVIIIEPFFDCYEPMTMMAGGRPVFVSLKPGPIQNGELGSSSNWQLDPMELAGKFTSRTKALVLNTPNNPLGKVFSREELELVASLCQQHDVVCITDEVYQWMVYDGHQHISIASLPGMWERTLTIGSAGKTFSATGWKVGWVLGPDHIMKHLRTVHQNSVFHCPTQSQAAVAESFEREQLLFRQPSSYFVQFPQAMQRCRDHMIRSLQSVGLKPIIPQGSYFLITDISDFKRKMPDLPGAVDEPYDRRFVKWMIKNKGLVAIPVSIFYSVPHQKHFDHYIRFCFVKDEATLQAMDEKLRKWKVEL [CCBL1]”, for which the “solubility in G1/S (log2)” value in series [1] was determined as 0.0856. For the same substance, the thermal stability score in series [2] (setting [4]) was 0.0443; in series [2] (cell cycle stage: mitosis), -0.361. The “solubility change mitosis (log2)” value in series [3] was -0.211.

For “MATPDVSVHMEEVVVVTTPDTAVDGSGVEGVKTVLVTTNLAPHGGDLTEDNMETENAAAAAAAAFTASSQLKEAVLVKMAEEGENLEAEIVYPITCGDSRANLIWRKFVCPGINVKCVQYDEHVISPKEFVHLAGKSTLKDWKRAIRMNGIMLRKIMDSGELDFYQHDKVCSNTCRSTKIDLSGARVSLSSPTSAEYIPLTPAAADVNGSPATITIETCEDPGDWTAAIGDDTFTFWRGLKDAGLLDEVIQEFHQELVETMRGLQQRVQDPPLQLRDAVLLNNIVQNFGMLDLVKKVLASHKCQMDRSREQYARDLAALEQQCDEHRRRAKELKHKSQHLSNVLMTLTPVSLPPPVKRPRLARATSGPAAMASQVLTQSAQLALGPGVPVPQLTSVPLGKVVSTLPSTVLGKGSLQAPPASSPASPLLGGYTVLASSGSTYPSTVEIHPDASSLTVLSTAAVQDGSTVFKVVSPLQLLTLPGLGPTLQNVAQASPGSSTIVTVPAGAAPGPEEHTATIEVAAMAEDHERK [GMEB2]”, the “solubility in G1/S (log2)” value in series [1] is -0.0692. In addition, the values for the thermal stability score in series [2] (setting [4]) and in series [2] (cell cycle stage: mitosis) were 0.359 and 0.761, respectively. Further, in series [3], the “solubility change mitosis (log2)” value came out at 0.0606.

With APOBEC3B, the “solubility in G1/S (log2)” value in series [1] is -0.745. The thermal stability score in series [2] (setting [4]) is 0.584; in series [2] (cell cycle stage: mitosis), 1.24. In addition, in series [3], the “solubility change mitosis (log2)” value was found to be 0.177.

For the substance “MGGGDLNLKKSWHPQTLRNVEKVWKAEQKHEAERKKIEELQRELREERAREEMQRYAEDVGAVKKKEEKLDWMYQGPGGMVNRDEYLLGRPIDKYVFEKMEEKEAGCSSETGLLPGSIFAPSGANSLLDMASKIREDPLFIIRKKEEEKKREVLNNPVKMKKIKELLQMSLEKKEKKKKKEKKKKHKKHKHRSSSSDRSSSEDEHSAGRSQKKMANSSPVLSKVPGYGLQVRNSDRNQGLQGPLTAEQKRGHGMKNHSRSRSSSHSPPRHASKKSTREAGSRDRRSRSLGRRSRSPRPSKLHNSKVNRRETGQTRSPSPKKEVYQRRHAPGYTRKLSAEELERKRQEMMENAKWREEERLNILKRHAKDEEREQRLEKLDSRDGKFIHRMKLESASTSSLEDRVKRNIYSLQRTSVALEKNFMKR [CWC25]”, in series [1], the “solubility in G1/S (log2)” value was -0.718. Besides, the figures for the thermal stability score in series [2] (setting [4]) and in series [2] (cell cycle stage: mitosis) were -0.522 and -0.488, respectively. For the same substance, the “solubility change mitosis (log2)” value in series [3] amounted to 0.463.

On to “MARPGMERWRDRLALVTGASGGIGAAVARALVQQGLKVVGCARTVGNIEELAAECKSAGYPGTLIPYRCDLSNEEDILSMFSAIRSQHSGVDICINNAGLARPDTLLSGSTSGWKDMFNVNVLALSICTREAYQSMKERNVDDGHIININSMSGHRVLPLSVTHFYSATKYAVTALTEGLRQELREAQTHIRATCISPGVVETQFAFKLHDKDPEKAAATYEQMKCLKPEDVAEAVIYVLSTPAHIQIGDIQMRPTEQVT [DHRS11]”, for which the “solubility in G1/S (log2)” value in series [1] worked out at 0.514. Besides, the thermal stability score in series [2] (setting [4]) is -0.426; in series [2] (cell cycle stage: mitosis) it was -1.39. For the same substance, in series [3], the “solubility change mitosis (log2)” value is -0.00389.

Take “MRGKTFRFEMQRDLVSFPLSPAVRVKLVSAGFQTAEELLEVKPSELSKEVGISKAEALETLQIIRRECLTNKPRYAGTSESHKKCTALELLEQEHTQGFIITFCSALDDILGGGVPLMKTTEICGAPGVGKTQLCMQLAVDVQIPECFGGVAGEAVFIDTEGSFMVDRVVDLATACIQHLQLIAEKHKGEEHRKALEDFTLDNILSHIYYFRCRDYTELLAQVYLLPDFLSEHSKVRLVIVDGIAFPFRHDLDDLSLRTRLLNGLAQQMISLANNHRLAVILTNQMTTKIDRNQALLVPALGESWGHAATIRLIFHWDRKQRLATLYKSPSQKECTVLFQIKPQGFRDTVVTSACSLQTEGSLSTRKRSRDPEEEL [RAD51C]”: the “solubility in G1/S (log2)” value in series [1] was found to be 0.00866. Besides, the thermal stability score is -0.288 in series [2] (setting [4]) and -0.541 in series [2] (cell cycle stage: mitosis). Moreover, in series [3], the “solubility change mitosis (log2)” value came out at 0.0331.
